Experimental findings from US20240360224A1 (ORIONIS BIOSCIENCES, published 2024) are described below.

Where a chain is given by its changes, count along the chain named. Names and notes keep the numbering of the source.

B1: 2LEC 24 (VHH)
VHH: QVQLQESGGGLVQAGGSLRLSCAASGRTFSTYAMGWFRQAPGKERGLVAAISWSGGSTYYADSVKGRFTIFRDNAENTVYLQMNSLKPEDTAVYYCAAEAEGSGREGNFYERSWYQGQGTQVTVSS
notes: Entry includes C-terminal AAA-HA-His tag (pMECS); only five His are printed in the text
B2: 3LEC_89 (wild type) (VHH)
VHH: QVQLQESGGGLVQPGGSLRLSCAASGRIFSVNAMGWYRQAPGKQRELVAAITNQGAPTYADSVKGRFTISRDNAGNTVYLQMNSLRPEDTAVYYCKAFTRGDDYWGQGTQVTVSS
notes: pHEN6C periplasmic expression with C-terminal his6 tag, no HA tag
B3: 3LEC_89_opt2 (E1D-Q5V-Q108L-A74S) (VHH)
VHH: B2 VHH with Q1D, Q5V, A74S, Q110L
notes: The entry already carries the named substitutions; pHEN6C, C-terminal his6 tag
B4: 3LEC_89_opt1 (E1D-Q5V-Q108L) (VHH)
VHH: B2 VHH with Q1D, Q5V, Q110L
notes: as for B3
B5: 3LEC_89_opt3 (E1D-Q5V-Q108L-G75K) (VHH)
VHH: B2 VHH with Q1D, Q5V, G75K, Q110L
notes: as for B3
B6: 3LEC_89_opt4 (E1D-Q5V-Q108L-A74S-G75K) (VHH)
VHH: B2 VHH with Q1D, Q5V, A74S, G75K, Q110L
notes: as for B3

T2 sequence (Q6UXN8 57-241 limits assumed): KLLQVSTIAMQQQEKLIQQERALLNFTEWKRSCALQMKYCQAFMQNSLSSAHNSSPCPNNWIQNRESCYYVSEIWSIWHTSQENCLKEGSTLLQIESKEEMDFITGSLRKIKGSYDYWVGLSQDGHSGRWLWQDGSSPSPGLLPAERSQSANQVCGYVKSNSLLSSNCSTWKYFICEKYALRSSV

For one assay, the target named is T1, human Clec9A (human, UniProt Q6UXN8 1-241).
T1 construct: Expressed on transfected CHO-K1, HEK293-T and HL116 cells, or native on human dendritic cells; also called hClec9A; C-type lectin domain family 9 member A
T1 sequence (Q6UXN8 whole entry, the tested form may be a part): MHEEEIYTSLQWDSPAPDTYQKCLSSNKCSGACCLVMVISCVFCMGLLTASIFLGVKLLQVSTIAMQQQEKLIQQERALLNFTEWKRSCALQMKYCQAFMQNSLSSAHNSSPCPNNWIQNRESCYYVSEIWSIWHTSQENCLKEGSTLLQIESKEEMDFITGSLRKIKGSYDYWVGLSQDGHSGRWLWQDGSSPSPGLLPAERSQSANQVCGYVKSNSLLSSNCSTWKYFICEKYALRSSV
Description: flow cytometry, crude periplasmic extracts on CHO-K1 cells stably transfected with human Clec9A. As for the experimental part:
A VHH library was constructed from an immunized of a llama. Three consecutive rounds of panning of a VHH library were performed in solution using stably transfected CHO-K cells expressing human Clec9A. The enrichment for antigen-specific phages was assessed after each round of panning by comparing the number of phagemid particles eluted from transfected cells (output) with the number of phagemid particles used for panning (input). The phage output increased about 10-fold in the 2nd round and about 10³-fold in the 3rd round, as compared to the output from the 1st round. The input phage was always about 10¹¹ and the output from first round was about 10⁸ phage particles. 285 randomly selected colonies from the 1st, 2nd and 3rd panning rounds (95 from each round) were sequenced and then grouped based on CDR3 sequences. Using crude periplasmic extracts including VHHs, 95 unique sequences were analyzed by flow cytometry for specificity to human Clec9A using CHO-K1 cells stably transfected with human Clec9A. The parental non-transfected CHO-K1 cells served as negative control cell. An irrelevant VHH was used as negative nanobody control. […] Table B below provides a description of 66 clones representing the 66 different anti-human Clec9A VHH genes. E. coli TG1 harboring recombinant phagemid pMECS containing anti-human Clec9A VHH sequences was generated and stored at […]. […]
A general note: Flow cytometry measures light scatter and fluorescence of single cells or particles in a stream.
For B1, the binding result was “binds”.

Another assay addresses T2, biotinylated human CLEC9A (human, UniProt Q6UXN8 57-241, limits assumed, biotinylated (site not stated)).
T2 construct: Captured on a streptavidin sensor for BLI
Description: BLI (Octet), biotinylated human CLEC9A on streptavidin sensor, VHH at 50, 100 and 200 nM, global analysis. As for the experimental part:
Affinities of the AFN's for Clec9A were determined using the bio-layer interferometry technology on an Octet system (ForteBio).
On the technique in general: Biolayer interferometry detects binding as a change in optical thickness at a sensor tip.
For B2, the Kd worked out at 1.74 nM, the koff was 0.000725 s⁻¹ and the kon was 416000 M⁻¹ s⁻¹.

On to B3, for which the Kd amounted to 2.41 nM, the off-rate (koff) was determined as 0.000817 s⁻¹ and the kon was 338000 M⁻¹ s⁻¹.

B4: binding was characterised by a dissociation constant (Kd) of 2.2 nM, the off-rate (koff) came out at 0.000861 s⁻¹ and the kon was 391000 M⁻¹ s⁻¹.

Consider B5, for which the affinity, expressed as Kd, was 2.56 nM; the koff was 0.00112 s⁻¹; the kon stood at 438000 M⁻¹ s⁻¹.

The molecule B6 yielded a Kd of 2.35 nM, a koff of 0.000982 s⁻¹ and a kon of 417000 M⁻¹ s⁻¹.

As a reminder, the Kd is the constant that tells how readily two partners part at equilibrium. High values mean lower affinity, low ones higher affinity. A word on the koff: it is the rate constant with which the complex falls apart. By kon is commonly meant a measure of how fast the partners come together. Read a high kon as faster complex formation.
